In article PMC5887321:
Read-outs that look alike come from different tables or passages of the source.

How the values were obtained:
Assay in all cases: SEC-SAXS
[1] = molecular target: T1, DC-RIG-I (CARDs-truncated) (human, UniProt O95786 239-925)
T1 sequence: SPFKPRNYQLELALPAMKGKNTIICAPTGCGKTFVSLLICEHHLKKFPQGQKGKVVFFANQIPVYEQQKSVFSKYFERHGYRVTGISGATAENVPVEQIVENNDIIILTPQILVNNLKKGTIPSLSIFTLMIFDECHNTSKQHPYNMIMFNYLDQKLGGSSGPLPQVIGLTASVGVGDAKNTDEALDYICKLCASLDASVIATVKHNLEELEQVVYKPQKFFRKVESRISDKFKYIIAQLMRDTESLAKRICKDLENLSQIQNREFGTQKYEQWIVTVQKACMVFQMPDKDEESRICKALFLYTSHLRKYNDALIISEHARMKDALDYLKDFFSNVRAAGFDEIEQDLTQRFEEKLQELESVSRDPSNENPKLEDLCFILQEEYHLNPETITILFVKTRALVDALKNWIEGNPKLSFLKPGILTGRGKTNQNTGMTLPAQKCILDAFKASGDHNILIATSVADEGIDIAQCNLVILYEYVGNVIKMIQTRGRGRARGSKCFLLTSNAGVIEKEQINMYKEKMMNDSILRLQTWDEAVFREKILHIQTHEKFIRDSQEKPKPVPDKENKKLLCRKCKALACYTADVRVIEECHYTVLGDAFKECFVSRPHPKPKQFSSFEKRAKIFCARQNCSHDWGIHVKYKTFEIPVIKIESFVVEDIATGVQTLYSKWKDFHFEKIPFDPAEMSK

FL-RIG-I [2] = molecular target: T2, FL-RIG-I (human, UniProt O95786 1-925)
T2 sequence: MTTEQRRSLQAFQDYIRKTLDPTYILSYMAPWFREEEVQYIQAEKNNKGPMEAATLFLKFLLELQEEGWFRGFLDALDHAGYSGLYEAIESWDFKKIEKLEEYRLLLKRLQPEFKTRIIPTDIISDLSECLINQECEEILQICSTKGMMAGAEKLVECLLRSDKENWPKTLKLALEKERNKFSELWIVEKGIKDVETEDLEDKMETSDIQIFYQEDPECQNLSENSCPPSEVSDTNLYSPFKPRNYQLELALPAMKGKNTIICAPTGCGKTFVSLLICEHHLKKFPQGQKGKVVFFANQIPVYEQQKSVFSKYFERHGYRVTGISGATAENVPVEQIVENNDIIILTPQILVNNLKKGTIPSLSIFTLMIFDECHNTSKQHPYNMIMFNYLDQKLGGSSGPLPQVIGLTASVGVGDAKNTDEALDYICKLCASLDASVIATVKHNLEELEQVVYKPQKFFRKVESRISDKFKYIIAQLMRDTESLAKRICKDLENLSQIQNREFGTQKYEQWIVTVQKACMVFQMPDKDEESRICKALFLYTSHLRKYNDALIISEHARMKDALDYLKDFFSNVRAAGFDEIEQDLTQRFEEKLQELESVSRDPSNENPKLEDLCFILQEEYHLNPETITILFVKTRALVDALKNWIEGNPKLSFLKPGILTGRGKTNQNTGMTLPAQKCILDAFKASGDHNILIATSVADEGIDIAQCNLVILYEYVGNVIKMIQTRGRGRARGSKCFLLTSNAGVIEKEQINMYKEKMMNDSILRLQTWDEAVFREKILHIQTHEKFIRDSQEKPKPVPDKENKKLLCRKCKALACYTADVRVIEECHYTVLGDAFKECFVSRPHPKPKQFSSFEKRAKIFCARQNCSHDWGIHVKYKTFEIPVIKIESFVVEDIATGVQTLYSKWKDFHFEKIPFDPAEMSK

FL-RIG-I [3] = molecular target: T2, FL-RIG-I; remark: listed apart in the source
[4] = molecular target: T1, DC-RIG-I (CARDs-truncated); remark: listed apart in the source
[5] = molecular target: T1, DC-RIG-I (CARDs-truncated); remark: listed apart in the source
FL-RIG-I [6] = molecular target: T2, FL-RIG-I; remark: listed apart in the source

GGACGUACGUUUCGACGUACGUCC (structured_RNA, 5'-triphosphate) [5'ppp 10 bp hairpin (10 bp)]: binds [1]; binds (FL-RIG-I [2]).

GGCGCGGCUUCGGCCGCGCC (structured_RNA, 5'-triphosphate) [5'ppp 8 bp hairpin (8 bp, SEC peak 1)]: binds (FL-RIG-I [3]); binds [4].

B1: 8 bp-long (self-annealed 8 bp, SEC peak 2) (dsRNA)
RNA 1: GGCGCGGCUUCGGCCGCGCC
RNA 2: GGCGCGGCUUCGGCCGCGCC
modifications: 5'-triphosphate on each strand
B1: binds [5]; binds (FL-RIG-I [6]).
